# Experimental data as given in patent US11840557B2, “Wnt7 variants capable of activating g-protein coupled receptor (Gpr)124/Reck/frizzled/lipoprotein receptor-related protein (LRP)-mediated Wnt signaling” (UNIVERSITÉ LIBRE DE BRUXELLES, priority 2018, dated 2023).
# T1: HA-Reck (Homo sapiens, UniProt O95980)
# T1 construct: expressed in transfected cells; host or cells: GPR124-/-;RECK-/- HEK293 (STF) cells, pCS2 / CMV promoter
# T1 sequence (O95980 23-942): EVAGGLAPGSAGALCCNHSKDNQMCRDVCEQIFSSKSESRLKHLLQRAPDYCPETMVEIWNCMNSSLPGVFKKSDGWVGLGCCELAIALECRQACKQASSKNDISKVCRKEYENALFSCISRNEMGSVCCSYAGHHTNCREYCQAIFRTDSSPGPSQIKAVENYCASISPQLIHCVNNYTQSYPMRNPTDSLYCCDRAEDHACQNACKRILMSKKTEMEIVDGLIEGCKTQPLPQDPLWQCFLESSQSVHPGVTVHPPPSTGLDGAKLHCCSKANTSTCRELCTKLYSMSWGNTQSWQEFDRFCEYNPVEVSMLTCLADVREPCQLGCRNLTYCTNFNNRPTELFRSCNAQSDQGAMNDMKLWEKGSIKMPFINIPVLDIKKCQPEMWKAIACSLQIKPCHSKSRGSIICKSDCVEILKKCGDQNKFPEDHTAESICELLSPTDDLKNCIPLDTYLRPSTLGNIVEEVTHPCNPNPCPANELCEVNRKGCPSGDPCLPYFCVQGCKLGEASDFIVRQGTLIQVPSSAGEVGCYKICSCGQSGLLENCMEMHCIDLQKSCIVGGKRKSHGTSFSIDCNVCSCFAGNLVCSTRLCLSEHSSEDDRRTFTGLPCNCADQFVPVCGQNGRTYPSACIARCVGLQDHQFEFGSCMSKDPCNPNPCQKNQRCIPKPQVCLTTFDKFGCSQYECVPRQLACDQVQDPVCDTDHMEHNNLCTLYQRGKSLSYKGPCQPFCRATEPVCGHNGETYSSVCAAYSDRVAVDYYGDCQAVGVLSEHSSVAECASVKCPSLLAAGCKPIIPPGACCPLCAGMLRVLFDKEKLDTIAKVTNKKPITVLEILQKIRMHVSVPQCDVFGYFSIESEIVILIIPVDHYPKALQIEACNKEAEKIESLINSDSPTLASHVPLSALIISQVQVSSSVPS
# Tests used:
# HA-Reck = biological target: T1, HA-Reck; test: Proximity ligation assay (PLA), anti-V5/anti-HA, V5-tagged Wnt ligand and HA-Reck in GPR124−/−;RECK−/− cells; assay type: cell-based; conditions: GPR124−/−;RECK−/− cells co-expressing HA-Reck
# Experimental: 1.7. Immunofluorescence and Proximity Ligation Assay Cells were grown in glass-coated chambers (IBIDI, Martinsried, Germany) and transfected after 24 h with Lipofectamine 2000 (Life Technologies, Carlsbad, Calif.). Cells were fixed with 4% paraformaldehyde for 10 min at room temperature (RT) 48 h post transfection. For immunofluorescence staining (IF), cells were blocked in 1% BSA-PBS for 30 min before being exposed to primary antibodies for 1 h at RT. After three PBS washes, cells were incubated with secondary antibodies for 1 h at RT. For anti-V5 staining of Wnt ligands, cells were additionally washes for 10 min in PBS 0.1% Tween 20 before incubation with the secondary antibody solution. For the proximity ligation assay (PLA) (Sigma-Aldrich, St. Louis, Mo.), cells were blocked for 30 min at 37° C. with the Blocking solution provided by the manufacturer before being incubated with the primary antibodies for 1 h at RT. Cells were washed three times and incubated with the PLA probes anti-rabbit PLUS and anti-mouse MINUS for 1 h at 37° C. After two PBS washes, cells were incubated with the Duolink Ligation solution for 30 min at 37° C. After two PBS washes, cells were incubated with the Duolink Amplification solution for 100 min at 37° C. The following antibodies were used: mouse monoclonal anti-V5 (R96025, Life Technologies, Carlsbad, Calif.) at 1:500 for IF and PLA, purified polyclonal rabbit anti-HA (H6908, St. Louis, Mo.) at 1:400 for IF and PLA and anti-mouse Alexa488-conjugated secondary antibody (Thermo Fisher Scientific, Waltham, Mass.) at 1:5000. Cells were stained for 2 min with Hoechst diluted to 10 μg ml-1 in PBS.
# Cells and zebrafish embryos were imaged with an LSM710 confocal microscope and images were processed in ImageJ. Images of eye fusion phenotypes were taken on Leica M165 FC. Representations of brain vasculature were generated using Imaris software (BitPlane, Zurich, Switzerland). The percentage of PLA positive (PLA+) areas and DAPI positive (DAPI+) areas were calculated using ImageJ on images containing about 50 to 100 cells. The PLA+ area was measured after manually applying a fixed threshold. The DAPI+ area was measured after applying the “default” thresholding method in Image J.
# Gpr124/Reck/Fz/LRP = biological target: T2, Gpr124/Reck/Fz/LRP (UniProt O70421+O95980); test: STF dual luciferase assay, Gpr124/Reck-dependent signaling in HEK293-STF cells; assay type: cell-based; conditions: Gpr124, RECK and Fz1 transfection
# T2 construct: host or cells: HEK293-STF cells
# Experimental: Cells were plated into 96-well plates and transfected after 24 h in triplicate with Lipofectamine 2000 (Life Technologies, Carlsbad, Calif.). The amount of plasmid DNA transfected per well was optimized for each expression vector: Renilla luciferase (0.5 ng) (was kindly provided by Jeremy Nathans (John Hopkins)), Wnt ligands (20 ng), Fz receptors (5 ng), Lrp (2.5 ng), Gpr124 (10 ng), Reck (5 ng) and Dkk-1 (10 ng) unless otherwise indicated. The total amount of DNA was adjusted to 100 ng per well with the empty pCS2 vector. Dual luciferase assays were performed using the STF cell line or by co-transfecting 20 ng of M50 Super 8× TOPFlash plasmid (Addgene plasmid #12456). Cells were harvested in passive lysis buffer (E1960, Promega, Wis.) and the activities of the Firefly and Renilla luciferases were measured sequentially using the Dual-Luciferase Reporter Assay system (E1960, Promega, Madison, Wis.) 48 h post-transfection. […] Luciferase activity was measured 24 h after co-culture.
# Cells were plated into 96-well plates and transfected after 24 h in triplicate with Lipofectamine 2000 (Invitrogen, Carlsbad, Calif.). […] Cells were harvested in passive lysis buffer (E1960, Promega, Wisconsin) and the activities of the Firefly and Renilla luciferases were measured sequentially using the Dual-Luciferase Reporter Assay system (E1960, Promega, Madison, Wis.) 48 h post-transfection.
# T2 sequence (O70421 69-642, one chain of several): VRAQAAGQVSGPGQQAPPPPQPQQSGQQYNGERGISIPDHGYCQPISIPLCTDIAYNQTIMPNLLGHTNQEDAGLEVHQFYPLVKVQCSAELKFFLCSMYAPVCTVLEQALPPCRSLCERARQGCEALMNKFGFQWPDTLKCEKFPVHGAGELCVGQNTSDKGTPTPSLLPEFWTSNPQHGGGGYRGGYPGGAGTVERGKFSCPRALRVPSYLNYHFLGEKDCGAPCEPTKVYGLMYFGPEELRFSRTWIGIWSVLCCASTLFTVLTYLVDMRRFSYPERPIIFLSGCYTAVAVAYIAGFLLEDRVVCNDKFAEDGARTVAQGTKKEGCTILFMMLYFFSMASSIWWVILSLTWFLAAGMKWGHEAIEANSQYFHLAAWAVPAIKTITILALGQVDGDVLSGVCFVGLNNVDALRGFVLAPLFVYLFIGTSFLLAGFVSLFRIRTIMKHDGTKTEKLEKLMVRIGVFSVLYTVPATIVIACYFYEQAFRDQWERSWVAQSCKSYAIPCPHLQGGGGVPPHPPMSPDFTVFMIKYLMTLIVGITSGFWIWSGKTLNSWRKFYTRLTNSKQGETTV
# T2 sequence (Q96PE1 34-1338 partner, one chain of several): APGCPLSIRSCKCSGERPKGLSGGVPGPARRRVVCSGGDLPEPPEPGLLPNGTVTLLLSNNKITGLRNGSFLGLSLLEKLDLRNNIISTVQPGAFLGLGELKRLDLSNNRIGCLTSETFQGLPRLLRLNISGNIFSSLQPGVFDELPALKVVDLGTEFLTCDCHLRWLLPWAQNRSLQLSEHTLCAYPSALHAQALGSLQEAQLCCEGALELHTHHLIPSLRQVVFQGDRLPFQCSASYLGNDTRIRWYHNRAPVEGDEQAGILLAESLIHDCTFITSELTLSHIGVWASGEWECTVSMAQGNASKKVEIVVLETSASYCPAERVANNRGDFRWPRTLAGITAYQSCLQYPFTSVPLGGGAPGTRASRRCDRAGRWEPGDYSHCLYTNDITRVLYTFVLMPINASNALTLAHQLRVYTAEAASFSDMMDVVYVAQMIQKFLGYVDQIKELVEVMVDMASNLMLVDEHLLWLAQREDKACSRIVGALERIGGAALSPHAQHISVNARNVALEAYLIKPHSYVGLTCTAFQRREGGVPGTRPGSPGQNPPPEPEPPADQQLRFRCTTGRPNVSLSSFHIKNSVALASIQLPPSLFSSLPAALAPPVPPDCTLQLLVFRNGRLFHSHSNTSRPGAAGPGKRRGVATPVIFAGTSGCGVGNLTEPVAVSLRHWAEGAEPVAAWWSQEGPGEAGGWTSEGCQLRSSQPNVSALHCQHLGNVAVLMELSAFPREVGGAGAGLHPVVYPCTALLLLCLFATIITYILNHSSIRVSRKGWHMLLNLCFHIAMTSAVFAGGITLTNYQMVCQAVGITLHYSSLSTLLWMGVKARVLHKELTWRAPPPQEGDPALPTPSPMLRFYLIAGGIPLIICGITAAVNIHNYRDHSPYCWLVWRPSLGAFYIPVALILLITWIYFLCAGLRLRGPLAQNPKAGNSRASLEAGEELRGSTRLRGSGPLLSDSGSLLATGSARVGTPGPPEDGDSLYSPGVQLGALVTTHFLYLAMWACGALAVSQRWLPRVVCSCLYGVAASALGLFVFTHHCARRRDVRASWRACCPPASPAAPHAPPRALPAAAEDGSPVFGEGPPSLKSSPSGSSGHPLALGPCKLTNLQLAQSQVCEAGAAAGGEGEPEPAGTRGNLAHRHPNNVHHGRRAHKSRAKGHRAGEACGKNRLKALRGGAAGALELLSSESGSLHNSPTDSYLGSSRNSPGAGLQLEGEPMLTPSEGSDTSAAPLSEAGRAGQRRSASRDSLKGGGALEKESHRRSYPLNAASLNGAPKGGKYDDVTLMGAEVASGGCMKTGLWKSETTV
# T2 sequence (O75581 20-1613 partner, one chain of several): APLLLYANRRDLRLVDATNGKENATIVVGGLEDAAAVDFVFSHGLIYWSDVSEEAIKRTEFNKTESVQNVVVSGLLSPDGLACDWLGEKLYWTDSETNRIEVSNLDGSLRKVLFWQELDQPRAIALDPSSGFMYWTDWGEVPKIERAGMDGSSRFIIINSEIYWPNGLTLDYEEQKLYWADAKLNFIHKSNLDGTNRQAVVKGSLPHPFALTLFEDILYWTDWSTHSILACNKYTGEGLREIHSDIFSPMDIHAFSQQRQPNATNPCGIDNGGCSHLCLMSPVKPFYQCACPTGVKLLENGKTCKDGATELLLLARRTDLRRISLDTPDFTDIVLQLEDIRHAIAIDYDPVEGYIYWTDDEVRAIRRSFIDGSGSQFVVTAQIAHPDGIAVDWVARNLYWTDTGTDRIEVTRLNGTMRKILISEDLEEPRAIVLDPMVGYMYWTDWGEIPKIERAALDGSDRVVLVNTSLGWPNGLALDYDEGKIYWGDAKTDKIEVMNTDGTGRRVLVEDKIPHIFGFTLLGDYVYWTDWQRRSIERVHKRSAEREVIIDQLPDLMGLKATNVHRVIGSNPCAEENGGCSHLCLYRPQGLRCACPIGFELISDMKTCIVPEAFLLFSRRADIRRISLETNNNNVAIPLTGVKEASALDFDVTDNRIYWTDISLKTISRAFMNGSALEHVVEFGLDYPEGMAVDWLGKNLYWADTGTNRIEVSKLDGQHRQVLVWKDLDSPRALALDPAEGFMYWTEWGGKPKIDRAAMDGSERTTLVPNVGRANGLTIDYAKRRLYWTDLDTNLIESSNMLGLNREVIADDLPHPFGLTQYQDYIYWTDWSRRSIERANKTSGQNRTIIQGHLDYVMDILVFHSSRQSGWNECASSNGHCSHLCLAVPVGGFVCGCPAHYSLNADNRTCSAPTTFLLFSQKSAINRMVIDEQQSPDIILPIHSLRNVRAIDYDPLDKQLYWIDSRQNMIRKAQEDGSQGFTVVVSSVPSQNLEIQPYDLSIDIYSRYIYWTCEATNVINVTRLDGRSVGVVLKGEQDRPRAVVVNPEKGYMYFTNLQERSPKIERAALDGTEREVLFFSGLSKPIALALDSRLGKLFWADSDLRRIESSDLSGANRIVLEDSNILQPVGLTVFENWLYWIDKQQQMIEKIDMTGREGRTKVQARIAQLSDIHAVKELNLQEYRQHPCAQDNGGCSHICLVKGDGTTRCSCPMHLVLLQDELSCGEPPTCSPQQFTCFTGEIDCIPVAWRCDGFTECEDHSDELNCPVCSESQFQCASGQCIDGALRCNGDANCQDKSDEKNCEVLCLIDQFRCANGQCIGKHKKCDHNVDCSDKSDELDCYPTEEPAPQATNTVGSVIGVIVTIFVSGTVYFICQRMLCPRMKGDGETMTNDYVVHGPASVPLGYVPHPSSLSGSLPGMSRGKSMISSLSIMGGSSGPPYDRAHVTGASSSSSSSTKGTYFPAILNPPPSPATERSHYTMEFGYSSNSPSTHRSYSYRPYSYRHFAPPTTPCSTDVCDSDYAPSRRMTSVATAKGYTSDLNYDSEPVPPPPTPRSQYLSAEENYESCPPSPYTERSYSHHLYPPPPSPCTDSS
molecule,measurement,setting,value
"Wnt7a^1-278: the N-terminal domain of Wnt7a, single domain truncated variant (protein, left off: small tags and cut ends, the N-terminal domain of Wnt7a, single domain truncated variant) LGASIICNKIPGLAPRQRAICQSRPDAIIVIGEGSQMGLDECQFQFRNGRWNCSALGERTVFGKELKVGSREAAFTYAIIAAGVAHAITAACTQGNLSDCGCDKEKQGQYHRDEGWKWGGCSADIRYGIGFAKVFVDAREIKQNARTLMNLHNNEAGRKILEENMKLECKCHGVSGSCTTKTCWTTLPQFRELGYVLKDKYNEAVHVEPVRASRNKRPTFLKIKKPLSYRKPMDTDLVYIEKSPNYC",Reck binding (anti-V5/anti-HA PLA signal),HA-Reck,still binds Reck
same,Reck binding (anti-V5/anti-HA PLA signal),HA-Reck; listed as Wnt7a^NTD,bound to Reck as potently as full-length Wnt7a
same,signaling capacity via Gpr124/Reck/Fz1,Gpr124/Reck/Fz/LRP,~40%
